Measurements published in US20210246191A1 (BIONTECH, published 2021).
Substitutions are numbered along the chain they refer to. Bridge positions count the residues as written; N and C are the ends. Ends that are not written are not given here.

How the values were obtained:
[1] = target: FN-67B89 (recombinant human fibronectin EDB flanked by its surrounding type III domains, C-terminal hexahistidine tag) (human) (UniProt P02751); assay: SPR, biotinylated FN-67B89 on streptavidin sensor, 50-4000 nM, 1:1 Langmuir fit
[2] = target: FN-67B89 (recombinant human fibronectin EDB flanked by its surrounding type III domains, C-terminal hexahistidine tag) (human) (UniProt P02751); assay: SPR, biotinylated FN-67B89 on streptavidin sensor, 1.25-10 nM, 1:1 Langmuir fit
bovine serum albumin = target: T1, bovine serum albumin (bovine, UniProt P02769 25-607); assay: ELISA, 200 nM Trx-miniprotein on coated protein (1 µg/well), duplicates
T1 construct: Control protein coated in ELISA; also called BSA
T1 sequence (P02769 25-607 limits assumed): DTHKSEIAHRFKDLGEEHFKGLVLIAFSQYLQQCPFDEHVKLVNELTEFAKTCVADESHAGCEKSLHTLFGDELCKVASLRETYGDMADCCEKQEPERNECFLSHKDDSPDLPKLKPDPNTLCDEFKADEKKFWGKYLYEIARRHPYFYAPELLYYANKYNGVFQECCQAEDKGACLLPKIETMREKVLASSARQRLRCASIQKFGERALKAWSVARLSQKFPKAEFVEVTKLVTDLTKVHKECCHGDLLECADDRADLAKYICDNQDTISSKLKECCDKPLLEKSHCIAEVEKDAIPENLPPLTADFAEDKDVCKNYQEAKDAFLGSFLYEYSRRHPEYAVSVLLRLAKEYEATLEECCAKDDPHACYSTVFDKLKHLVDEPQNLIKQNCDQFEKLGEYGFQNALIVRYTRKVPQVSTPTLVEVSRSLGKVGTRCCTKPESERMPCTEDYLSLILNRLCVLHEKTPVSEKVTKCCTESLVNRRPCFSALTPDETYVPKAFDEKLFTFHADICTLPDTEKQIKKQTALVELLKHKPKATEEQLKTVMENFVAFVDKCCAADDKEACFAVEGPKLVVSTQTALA
Method: FIG. 5: Extended specificity analysis of Trx-cystine-knot miniprotein clones MCopt 1.0-2/-3 and MCopt 2.0-1/-2/3. […] ELISA was performed in duplicates, error bars represent standard deviation and Trx-MC-Myc-010 served as negative cystine-knot miniprotein control.
(§1) ELISA was used as technique to analyze protein-protein interactions. Cavities of 96-well microtiter plates (Nunc MaxiSorp™, Thermo Fisher Scientific) were coated with 1 μg FN-B, bovine serum albumin (BSA, Eurobio), milk powder, streptavidin (Sigma Aldrich), T7-His-TEV-B (LD BioPharma), FN-B(8-14) (R&D Systems), lysozyme, ovalbumin (GE Healthcare Life Science), aldolase (GE Healthcare Life Science) or 0.6 μg anti-c-myc-antibody (M4439, Sigma) overnight at 4° C. The wells were washed three times with PBS-T (1×PBS with 0.1% (w/v) Tween-20), blocked with 1× Casein buffer (Sigma Aldrich) diluted in PBS for 2 h at RT and washed again as described. […] After three times of washing with PBS-T, binding of the respective variant was detected with a horseradish peroxidase (HRP)-conjugated anti-S-tag antibody (ab18589 or ab19324, Abeam). Enzymatic reaction was measured with TMB as a chromogenic substrate and stopped with 0.2 M HCl after approximately 5 min. The measurement of absorbance at 450 nm was performed using an Infinite M200 PRO Microplate Reader (Tecan).

[3] = target: FN-67B89 (recombinant human fibronectin EDB flanked by its surrounding type III domains, C-terminal hexahistidine tag) (human) (UniProt P02751); assay: ELISA titration of Trx-miniprotein on coated protein (1 µg/well), HRP anti-S-tag antibody, duplicates [continued), panel MCopt 1.0-3]
[4] = target: T2, FN-B (recombinant human fibronectin EDB as a single domain, C-terminal hexahistidine tag) (human, UniProt P02751 1266-1356, Biotinylated on primary amines only for the phage screening; coated unmodified in the ELISAs); assay: as above
T2 construct: Made in E. coli (pET-21a); Residue numbers count on isoform 7 of P02751; Biotinylated on primary amines for the phage screening; also called Fibronectin Extra Domain B; single domain FN-B
T2 sequence (P02751 other isoform, or with tags, fused parts or gaps limits assumed): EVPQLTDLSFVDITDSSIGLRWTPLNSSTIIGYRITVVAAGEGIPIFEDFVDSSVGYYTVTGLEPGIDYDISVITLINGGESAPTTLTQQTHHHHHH
Method: (§2) FIG. 6: Saturation-binding curves of MCopt 1.0-2/-3 and MCopt 2.0-1/-2/-3 EDB binding. […] Binding of Trx-cystine-knot miniproteins was detected with an HRP-conjugated anti-s-tag-antibody. ELISAs were performed in duplicates (single values for FN-B(8-14)).
as §1

[5] = target: T3, FN-B(8-14) (R&D Systems), EDB with C-terminal domains 8-13 and 1/2 of domain 14 (UniProt P02751 1265-1908); assay: ELISA titration of Trx-miniprotein on coated protein (1 µg/well), HRP anti-S-tag antibody, single values [continued), panel MCopt 1.0-3]
T3 construct: domain: EDB with C-terminal domains 8-13 and 1/2 of domain 14; Bought
T3 sequence (P02751 1265-1908 limits assumed): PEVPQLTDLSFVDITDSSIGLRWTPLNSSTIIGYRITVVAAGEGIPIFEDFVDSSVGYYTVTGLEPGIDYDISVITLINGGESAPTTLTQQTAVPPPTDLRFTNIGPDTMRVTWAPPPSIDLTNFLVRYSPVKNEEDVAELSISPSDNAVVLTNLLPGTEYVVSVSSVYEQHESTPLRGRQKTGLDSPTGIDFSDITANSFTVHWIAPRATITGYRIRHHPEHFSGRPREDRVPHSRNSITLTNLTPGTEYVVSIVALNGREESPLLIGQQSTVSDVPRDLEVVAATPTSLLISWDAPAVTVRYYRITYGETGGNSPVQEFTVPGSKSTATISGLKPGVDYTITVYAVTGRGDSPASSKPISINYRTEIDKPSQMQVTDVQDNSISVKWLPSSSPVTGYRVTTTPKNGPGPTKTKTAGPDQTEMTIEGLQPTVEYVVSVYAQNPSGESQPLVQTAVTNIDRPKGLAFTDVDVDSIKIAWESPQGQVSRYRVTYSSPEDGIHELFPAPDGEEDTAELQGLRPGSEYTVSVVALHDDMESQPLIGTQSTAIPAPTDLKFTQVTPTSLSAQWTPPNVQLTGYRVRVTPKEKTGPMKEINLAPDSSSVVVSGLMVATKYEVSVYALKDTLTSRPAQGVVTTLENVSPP
Method: as §2, §1

[6] = target: FN-67B89 (recombinant human fibronectin EDB flanked by its surrounding type III domains, C-terminal hexahistidine tag) (human) (UniProt P02751); assay: SPR single cycle kinetics, biotinylated FN-67B89 on streptavidin chip, 1.25-10 nM, 1:1 Langmuir fit
[7] = target: FN-67B89 (recombinant human fibronectin EDB flanked by its surrounding type III domains, C-terminal hexahistidine tag) (human) (UniProt P02751); assay: SPR, biotinylated FN-67B89 on streptavidin sensor, 62.5-4000 nM, 1:1 Langmuir fit
[8] = target: T4, FN-6789 (recombinant human fibronectin type III domains 6-9 without EDB, C-terminal hexahistidine tag) (human, UniProt P02751-1 1085-1446, limits assumed); assay: ELISA, 1.56 to 50 nM Trx-miniprotein on 1 µg coated protein per well, 50 ng HRP anti-S-tag antibody, duplicates
T4 construct: domain: domains 6-9 without EDB; Control protein
T4 sequence (P02751 other isoform, or with tags, fused parts or gaps limits assumed): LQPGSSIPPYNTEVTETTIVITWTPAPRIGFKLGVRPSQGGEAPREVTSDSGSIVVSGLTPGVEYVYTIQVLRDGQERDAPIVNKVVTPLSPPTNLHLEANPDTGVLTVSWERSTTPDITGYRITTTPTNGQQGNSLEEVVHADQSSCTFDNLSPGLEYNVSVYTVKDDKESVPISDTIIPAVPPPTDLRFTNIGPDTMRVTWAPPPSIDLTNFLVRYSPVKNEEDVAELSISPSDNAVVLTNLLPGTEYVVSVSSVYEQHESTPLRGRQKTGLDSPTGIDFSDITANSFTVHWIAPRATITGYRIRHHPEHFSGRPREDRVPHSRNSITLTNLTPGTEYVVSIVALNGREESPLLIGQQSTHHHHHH

[9] = target: T2, FN-B (recombinant human fibronectin EDB …); assay: ELISA, Trx fusion 50 to 1.563 nM on coated FN-B, HRP anti-S-tag antibody; relative binding from apparent binding constants against parental MC-FN-010, three assays

B1: MC-FN-010 (tag-free cystine-knot miniprotein) (designed binder)
chain: PMCTQRKNRIRLCRRDSDCTGACICRGNGYCG
modifications: disulfide 13-25; disulfide (positions not given here); not fully specified (bridges)
B1 showed a Kd [1] of 1580 nM, a koff [1] of 0.0783 s⁻¹ and a kon [1] of 49500 M⁻¹ s⁻¹.

PMCTQRANRIRLCRRDSDCTGACICRGNGYCG (designed binder, ends and bridges not checked; also: trimer, DOTA on trimer, site not given here) [DOTA-(MC-FN-016)3 (unlabeled trimeric probe)] was tested, and the Kd [2] was 0.624 nM, the koff [2] was 0.00226 s⁻¹ and the kon [2] was 3.73e+06 M⁻¹ s⁻¹.

B2: Trx-MC-FN-010 (thioredoxin fusion of cystine-knot miniprotein MC-FN-010) (designed binder)
chain: B1 chain
modifications: not fully specified; cysteine pairing not given here; also: fused to E. coli thioredoxin with His6-tag, S-tag and thrombin site
notes: also called Trx-MCopt 1.0-3; MCopt 1.0-3; not shown: E. coli thioredoxin-A, fusion partner from vector pET-32-LibEx; H6-tag, s-tag and thrombin cleavage site of pET-32-LibEx
For B2, the binding result (bovine serum albumin) was “no binding (tested: 200 nM)”, the EC50 (read off the curve) [3] was 10 nM and the “EC50 (read off the curve)” value [4] was ~4 nM. For the same binder, the “EC50 (read off the curve)” value [5] was ~10 nM.

B3: AF680-(MC-FN-010)3 (trimeric MC-FN-010 conjugated with Alexa Fluor 680) (designed binder)
peptide: B1 chain
modifications: ends and bridges not checked; also: trimer via oxime ligation, Alexa Fluor 680 label
With B3 the Kd [6] was 0.431 nM, the koff [6] was 0.00347 s⁻¹ and the kon [6] was 8.04e+06 M⁻¹ s⁻¹.

B4: AF680-(MC-FN-016)3 (trimeric MC-FN-016 conjugated with Alexa Fluor 680) (designed binder)
peptide: B1 chain with K7A
modifications: ends and bridges not checked; also: trimer via oxime ligation, Alexa Fluor 680 label
B4 gave a Kd [6] of 0.902 nM, a koff [6] of 0.00231 s⁻¹ and a kon [6] of 2.56e+06 M⁻¹ s⁻¹.

B5: MC-FN-016 (tag-free cystine-knot miniprotein) (designed binder)
chain: B1 chain with K7A
modifications: disulfide 13-25; disulfide (positions not given here); not fully specified (bridges)
With B5 the Kd [7] was 1410 nM, the koff [7] was 0.187 s⁻¹ and the kon [7] was 133000 M⁻¹ s⁻¹.

B6: Trx-MC-FN-016 (thioredoxin fusion of cystine-knot miniprotein MC-FN-016) (designed binder)
chain: B1 chain with K7A
modifications: not fully specified (N-terminus, bridges); cysteine pairing not given here; also: N-terminal thioredoxin fusion carrier (Trx, H6-tag, S-tag, thrombin site), no letters given
notes: not shown: E. coli thioredoxin-A, fusion partner from vector pET-32-LibEx; H6-tag, s-tag and thrombin cleavage site of pET-32-LibEx
B6: no binding (tested: 50 nM) [8].

B7: Trx-MC-FN-0111 (designed binder, not shown: large carriers; small tags and cut ends)
chain: B1 chain with L12A
modifications: disulfide 13-25, 19-31, 3-23; also: N-terminal thioredoxin fusion carrier (Trx, H6-tag, S-tag, thrombin site), no letters given
notes: alanine scan variant of MC-FN-010
B7: no binding (tested: 50 nM) [9].

B8: Trx-MC-FN-019 (designed binder, not shown: large carriers; small tags and cut ends)
chain: B1 chain with I10A
modifications: disulfide 13-25, 19-31, 3-23; also: N-terminal thioredoxin fusion carrier (Trx, H6-tag, S-tag, thrombin site), no letters given
notes: as for B7
B8: no binding (tested: 50 nM) [9].

B9: Trx-MC-FN-0114 (designed binder)
peptide: B1 chain with R26A
modifications: disulfide 13-25, 19-31, 3-23; also: N-terminal thioredoxin fusion carrier (Trx, H6-tag, S-tag, thrombin site), no letters given
notes: alanine scan variant of MC-FN-010; not shown: N-terminal carrier from vector pET-32-LibEx (E. coli thioredoxin-A, H6-tag, S-tag, thrombin site and their linkers)
B9: no binding (tested: 50 nM) [9].

B10: Trx-MC-FN-018 (designed binder, not shown: large carriers; small tags and cut ends)
chain: B1 chain with R9A
modifications: disulfide 13-25, 19-31, 3-23; also: N-terminal thioredoxin fusion carrier (Trx, H6-tag, S-tag, thrombin site), no letters given
notes: as for B7
B10: no binding (tested: 50 nM) [9].

B11: Trx-MC-FN-0110 (designed binder, not shown: large carriers; small tags and cut ends)
chain: B1 chain with R11A
modifications: disulfide 13-25, 19-31, 3-23; also: N-terminal thioredoxin fusion carrier (Trx, H6-tag, S-tag, thrombin site), no letters given
notes: as for B7
B11: no binding (tested: 50 nM) [9].
